In paper PMC4072508, “Genome-Wide Prediction and Validation of Peptides That Bind Human Prosurvival Bcl-2 Proteins” (PLoS Computational Biology, 2014):

T1: Bfl-1, Q16548
T1 chain: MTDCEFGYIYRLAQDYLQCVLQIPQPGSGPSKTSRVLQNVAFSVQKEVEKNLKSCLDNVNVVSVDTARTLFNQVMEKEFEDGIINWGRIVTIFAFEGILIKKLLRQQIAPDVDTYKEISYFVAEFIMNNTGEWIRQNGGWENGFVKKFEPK

T2: Mcl-1, Q07820
T2 chain: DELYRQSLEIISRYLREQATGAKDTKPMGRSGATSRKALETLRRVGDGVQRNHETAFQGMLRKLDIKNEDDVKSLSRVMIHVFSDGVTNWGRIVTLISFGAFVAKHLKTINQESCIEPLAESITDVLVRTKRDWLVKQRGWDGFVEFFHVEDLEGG


Assays:
Test in all cases: peptide SPOT array, c-Myc-tagged receptor at 1 uM or 100 nM, anti-c-Myc-Cy3
[1] = target: Bcl-xL, Q07817
Sequence of Bcl-xL, Q07817 (Q07817 1-209): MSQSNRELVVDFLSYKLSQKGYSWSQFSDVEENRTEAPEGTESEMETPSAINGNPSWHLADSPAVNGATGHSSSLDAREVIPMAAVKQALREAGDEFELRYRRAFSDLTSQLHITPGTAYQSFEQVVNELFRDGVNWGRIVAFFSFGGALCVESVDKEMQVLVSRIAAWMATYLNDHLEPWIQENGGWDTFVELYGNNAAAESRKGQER

[2] = target: T1, Bfl-1, Q16548
[3] = target: T2, Mcl-1, Q07820

Binder	SPOT signal as a fraction of Bim BH3's signal on the same receptor and array [1]	SPOT signal as a fraction of Bim BH3's signal on the same receptor and array [2]	SPOT signal as a fraction of Bim BH3's signal on the same receptor and array [3]
MSLFLRVVFSDTMFGDLFEEEYSTVS [USP40]	0.06	0.04	0.05
LALMMQLARELKTLARDLGMAVVVTN [RAD51L3]	0.1	0.07	0.12
NNNMDVESRTMATMGDTLASRGLLDA	0.04	0.06	0.03
LFWTPLLVVLLAGLLDTEAQQTTLHP [SGCA]	0.06	0.08	0.05
LNLLMISVAFLRVIGDQLEKLCDSLL [SLC38A8]	0.05	0.05	0.05
MSILTIASAVLEFVGDGIYNNTMGHV [TAP1]	0.06	0.04	0.05
AEVMRQRGINDRYLGKVLELVLRSPA [KIAA0664]	0.86	0.49	0.53
LSIIYTLVEIFQNILDTNLADFTAGL [SLC26A4]	0.06	0.03	0.05
SEIMHSFAKCIEVMLDGCLNNEHFEE	0.1	0.04	0.06
MPYMEAVIHEIQRFGDVIPMSLARRV [CYP2A6]	0.15	0.1	0.1
TAAAAYRGAHLRGRGRTVYNTFRAAA	2.64	1.71	1.37
CHGLRELALNYHLLLDELLLALSSEK [FBXL3]	0.07	0.04	0.06
SWFIQSLCAMDKQYADKLEFMHILTR [CASP3]	0.08	0.05	0.06
SKEVAILCSFDLGLGDSCFNTQLLSI [MFSD11]	0.08	0.03	0.04
SFLSAHCASHLAWFGDSLTSLSQRLQ [TMEM214]	0.09	0.09	0.06
CGEWTRRSLHDRVLGRQLILPTDKGV [FAM149A]	0.91	0.86	0.72

Binder	SPOT signal as a fraction of Bim BH3's signal on the same receptor and array [1]	SPOT signal as a fraction of Bim BH3's signal on the same receptor and array [2]	SPOT signal as a fraction of Bim BH3's signal on the same receptor and array [3]
VLELHPGAQRDHIGCDEVYYLGEGEA [HEXDC]	0.05	0.04	0.04
ISSYMVLAPVDGYLGDRYNRKYLMCG [SPNS1]	1.03	0.68	0.69
NNNMDVESRTDATMGDTLASRGLLDA	0.05	0.06	0.03
SQEPLEKAQLDALVGDQLIQSHHYAA	0.06	0.04	0.03
LWAAQRYGRELRRMLDEFVDSFKKGL [BAD]	0.49	0.42	0.41
VHKHSRLAEVLQLGSDILPQYKQEAP [KCNH1]	0.17	0.09	0.21
PYLSKHRADRMRRLLDFLNQESFDLA [SMPD2]	0.67	0.53	0.52
GTAVAYRGAHDRGRGRAVYNTFRAAP	2.76	1.47	1.35
AIILCNVCGNDCTDCDRFLHLHRRTK [MYCBP2]	0.2	0.13	0.16
TAGLRPGARLLRVCLQTLPSLRPEAA [SIPA1]	0.86	0.57	0.63
LLDFFMVSILFSKLGDLLHKLQFVLT [PCNXL2]	0.11	0.06	0.09
PKKKMTLSEIDQWICDNFPYYREAGS [FOXJ3]	0.08	0.06	0.1
PALLVHWAKCLQKMLRGLNSSYDQQE [RGPD2]	0.55	0.39	0.45
SQEPLEKAQLLALVGDQLIQSHHYAA	0.06	0.04	0.04
VLAPVQLGKWLVLFCDEINLPDMDKY [DYNC1H1]	0.36	0.08	0.05
SEIMHSFAKCDEVMGDGCLNNEHFEE	0.09	0.03	0.04
